Assay results taken from the supplement of paper PMC10057847, “Precision engineering of biological function with large-scale measurements and machine learning” (PLOS ONE, 2023).
± gives the uncertainty stated by the source.

B1: library; the commonest letter at each place (parent)
chain: MKPVTLYDVAEYAGVSYQTVSRVVNQASHVSAKTREKVEAAMAELNYIPNRVAQQLAGKQSLLIGVATSSLALHAPSQIVAAIKSRADQLGASVVVSMVERSGVEACKAAVHNLLAQRVSGLIINYPLDDQDAIAVEAACTNVPALFLDVSDQTPINSIIFSHEDGTRLGVEHLVALGHQQIALLAGPLSSVSARLRLAGWHKYLTRNQIQPIAEREGDWSAMSGFQQTMQMLNEGIVPTAMLVANDQMALGAMRAITESGLRVGADISVVGYDDTEDSSCYIPPLTTIKQDFRLLGQTSVDRLLQLSQGQAVKGNQLLPVSLVKRKTTLAPNTQTASPRALADSLMQLARQVSRLESGQ

Key:
Details in all cases: with IPTG
[1] = variants of: B1
Procedure, shortened: (§1)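 Geometric mean YFP fluorescence from gated, bead-calibrated (MEF) flow cytometry was fitted against IPTG with Bayesian MCMC Hill models over non-outlier replicates to yield EC50, G0, G∞ and n with uncertainties. The E. coli MG1655Δlac cells held LacI on pVER and eYFP behind lacO and were grown at 37 °C in rich M9 with kanamycin. They were then grown in two 160-min steps across a 2-fold IPTG series plus no IPTG and diluted in PBS with chloramphenicol before reading.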

[2] = variants of: B1; experiment: Hill coefficient n (dimensionless); higher = steeper dose response
Procedure, shortened: as §1

[3] = variants of: B1; experiment: basal output G0 (YFP, no IPTG) (log10 MEF); higher = higher reporter expression without inducer
Procedure, shortened: as §1

[4] = variants of: B1; experiment: saturating output G-infinity (YFP) (log10 MEF); higher = higher reporter expression at saturating IPTG
Procedure, shortened: as §1

Variant | EC50 for IPTG (log10 µmol/L) [1] | Hill coefficient n [2] | basal output G0 (log10) [3] | saturating output G-infinity (log10) [4]
Q55K G121V N333I | 1.78 ± 0.031 | 1.58 ± 0.092 | 2.37 ± 0.36 | 4.393 ± 0.012
G200C | 2.729 ± 0.016 | 1.58 ± 0.049 | 1.48 ± 0.68 | 4.489 ± 0.0069
Y273H D278G Q335L E357G | 3.07 ± 0.09 | 1.62 ± 0.14 | 2.16 ± 0.11 | 4.07 ± 0.075
N125D | 2.739 ± 0.019 | 1.27 ± 0.038 | 2.73 ± 0.035 | 4.445 ± 0.0072
S93N V99E S102R L198Q S260F A337S | 0.634 ± 0.024 | 1.31 ± 0.088 | 3.834 ± 0.012 | 4.443 ± 0.0046
L56M A194V | 2.393 ± 0.016 | 1.42 ± 0.045 | 3.9036 ± 0.0036 | 4.549 ± 0.0059
Q89L S158C E172K Q291H | 2.457 ± 0.021 | 1.33 ± 0.04 | 3.336 ± 0.007 | 4.341 ± 0.0086
V80L S97T | 1.611 ± 0.0061 | 1.57 ± 0.031 | 2.33 ± 0.069 | 4.0264 ± 0.0022
V136E S279T | 0.991 ± 0.11 | 2.42 ± 0.69 | 3.916 ± 0.02 | 4.035 ± 0.0064
S70R S97T | 1.16 ± 0.037 | 1.37 ± 0.1 | 3.15 ± 0.062 | 4.362 ± 0.012
Q181H | 2.037 ± 0.0042 | 1.625 ± 0.015 | 2.24 ± 0.049 | 4.4146 ± 0.0018
S70R N208Y | 1.444 ± 0.0064 | 1.46 ± 0.026 | 2.66 ± 0.045 | 4.2522 ± 0.0022
V80L L169P | 2.47 ± 0.026 | 1.2 ± 0.077 | 1.86 ± 0.58 | 3.696 ± 0.0083
I64V V95M Q131R T141A D152E N208I A222T L295M K327N | 0.469 ± 0.011 | 1.55 ± 0.075 | 3.589 ± 0.011 | 4.4894 ± 0.0031
S70R Q181H | 1.49 ± 0.03 | 1.46 ± 0.12 | 2.55 ± 0.62 | 4.269 ± 0.011
S97T | 1.59 ± 0.023 | 1.58 ± 0.067 | 2.61 ± 0.16 | 4.572 ± 0.01
S70R S97T F161V | 1.71 ± 0.068 | 1.16 ± 0.12 | 3.29 ± 0.059 | 4.429 ± 0.023
V96E T154I S158R V238D M254I V264I | 2.37 ± 0.029 | 1.37 ± 0.067 | 4.479 ± 0.01 | 3.19 ± 0.03
V80L V96E T154I S158R V238D M254I V264I | 1.68 ± 0.055 | 1.16 ± 0.085 | 4.207 ± 0.016 | 3.07 ± 0.031

Variant | EC50 for IPTG (log10 µmol/L) [1] | Hill coefficient n [2] | basal output G0 (log10) [3] | saturating output G-infinity (log10) [4]
V94L V99I V104I L307F | 1.47 ± 0.02 | 1.56 ± 0.1 | 2.75 ± 0.26 | 4.204 ± 0.0067
L169P | 2.678 ± 0.026 | 1.34 ± 0.061 | 2.72 ± 0.067 | 4.3 ± 0.0095
A87P V301M E357G | 2.37 ± 0.024 | 1.18 ± 0.053 | 4.51 ± 0.0073 | 3.619 ± 0.014
I160N Q231H I289V D302E | 2.6 ± 0.026 | 1.67 ± 0.073 | 2.06 ± 0.43 | 4.284 ± 0.015
S120G M223L F226L L319F R355L | 2.248 ± 0.015 | 1.51 ± 0.035 | 2.781 ± 0.021 | 4.407 ± 0.0067
S70R V150A S190T F226L | 0.971 ± 0.021 | 1.48 ± 0.089 | 3.37 ± 0.035 | 4.221 ± 0.0049
S69T I83M | 2.293 ± 0.009 | 1.48 ± 0.033 | 1.02 ± 0.61 | 4.2699 ± 0.0031
G103D H202Y P284T | 1.5 ± 0.016 | 1.64 ± 0.075 | 2.85 ± 0.11 | 4.458 ± 0.0062
S70R V136E | 1.841 ± 0.017 | 1.69 ± 0.085 | 4.55 ± 0.0061 | 3.806 ± 0.01
L56M D130E | 0.886 ± 0.058 | 1.42 ± 0.21 | 4.026 ± 0.027 | 4.51 ± 0.011
Q317L | 2.051 ± 0.0097 | 1.66 ± 0.041 | 2.08 ± 0.5 | 4.4477 ± 0.0044
V80L I83M S97T | 1.986 ± 0.0056 | 1.55 ± 0.025 | 1.99 ± 0.077 | 3.8535 ± 0.0021
S190C | 2.091 ± 0.0053 | 1.65 ± 0.019 | 2.31 ± 0.049 | 4.4474 ± 0.0025
S97T G200C | 2.162 ± 0.012 | 1.65 ± 0.041 | 2.68 ± 0.043 | 4.442 ± 0.0057
S279T | 1.481 ± 0.012 | 1.48 ± 0.03 | 2.68 ± 0.034 | 4.458 ± 0.0048
V99E A116T T141I S190C | 0.86 ± 0.015 | 1.33 ± 0.047 | 3.534 ± 0.013 | 4.454 ± 0.0039
E44D R101G R303S R355L | 1.62 ± 0.023 | 1.53 ± 0.093 | 2.44 ± 0.76 | 4.461 ± 0.0089
S70R Q231R | 1.509 ± 0.0064 | 1.47 ± 0.025 | 2.67 ± 0.037 | 4.251 ± 0.0022
I160F L185F | 3.06 ± 0.056 | 1.77 ± 0.11 | 2.08 ± 0.16 | 4.19 ± 0.048

Variant | EC50 for IPTG (log10 µmol/L) [1] | Hill coefficient n [2] | basal output G0 (log10) [3] | saturating output G-infinity (log10) [4]
S69T S279T | 1.28 ± 0.013 | 1.56 ± 0.053 | 2.7 ± 0.11 | 4.428 ± 0.0047
A109E D165V G166A R255C E259G | 0.842 ± 0.018 | 1.33 ± 0.06 | 3.421 ± 0.019 | 4.417 ± 0.0048
K203N D278V S280L I283V | 1.8 ± 0.022 | 1.73 ± 0.085 | 3.192 ± 0.021 | 4.401 ± 0.009
S77P E105V | 2.049 ± 0.0095 | 1.59 ± 0.043 | 2.53 ± 0.067 | 4.1995 ± 0.004
V136E F161V | 3.713 ± 0.031 | 1.84 ± 0.2 | 4.516 ± 0.0031 | 4.229 ± 0.011
G91D V94A R101G S158C T167M E172D A176S F226Y T276S T299A | 2.31 ± 0.027 | 1.25 ± 0.063 | 4.329 ± 0.0062 | 3.63 ± 0.0095
A138T A214V V244L | 1.808 ± 0.0078 | 1.61 ± 0.025 | 2.43 ± 0.047 | 4.4294 ± 0.0033
A72V A110V N142D S322L | 0.557 ± 0.022 | 1.42 ± 0.1 | 3.778 ± 0.015 | 4.443 ± 0.0049
S69T S97T | 1.37 ± 0.019 | 1.55 ± 0.059 | 2.65 ± 0.11 | 4.496 ± 0.0072
L296R | 4.37 ± 0.045 | 1.33 ± 0.051 | 2.995 ± 0.0098 | 4.383 ± 0.025
F161V | 2.58 ± 0.015 | 1.59 ± 0.044 | 1.98 ± 0.34 | 4.455 ± 0.0069
F161S | 1.12 ± 0.017 | 1.43 ± 0.047 | 3.04 ± 0.036 | 4.464 ± 0.0055
F161L | 3.161 ± 0.0097 | 1.32 ± 0.022 | 1.83 ± 0.42 | 4.38 ± 0.0037
S69T I83M S97T | 1.957 ± 0.0053 | 1.61 ± 0.017 | 1.17 ± 0.54 | 4.4073 ± 0.0024
V94M S190C G200A Q209R R263H Q317L | 1.44 ± 0.025 | 1.4 ± 0.072 | 3.418 ± 0.023 | 4.454 ± 0.0086
A82V | 1.93 ± 0.025 | 1.51 ± 0.075 | 1.71 ± 0.7 | 4.252 ± 0.01
A82G | 2.576 ± 0.011 | 1.3 ± 0.021 | 2.51 ± 0.036 | 4.414 ± 0.0045
S69T | 1.7 ± 0.018 | 1.64 ± 0.06 | 2.07 ± 0.53 | 4.406 ± 0.0077
